Assay: label from the status in PepcDB records

Sequence | protein production
MRVAVVGATGAVGREILKVLEARNFPLSELRLYASPRSAGVRLAFRGEEIPVEPLPEGPLPVDLVLASAGGGISRAKALVWAEGGALVVDNSSAWRYEPWVPLVVPEVNREKIFQHRGIIANPNCTTAILAMALWPLHRAFQAKRVIVATYQAASGAGAKAMEELLTETHRFLHGEAPKAEAFAHPLPFNVIPHIDAFQENGYTREEMKVVWETHKIFGDDTIRISATAVRVPTLRAHAEAVSVEFARPVTPEAAREVLKEAPGVEVVDEPEAKRYPMPLTASGKWDVEVGRIRKSLAFENGLDFFVVGDQLLKGAALNAVQIAEEWLKGA | not failed
MSKIKWSNLWKGFAMGTTDLVPGVSGGTIALLLGIYDDFIRSISGLFSKRFWESLKFLLPIGIGMVVAIGLLSKLINYLLSTHTVPTMFFFVGLIGGIIPYLLKTSRFKHTFTTPHYLLLVVGIIVIVMMTVMNSGDKHAGETLSLSTGLILKYFIAGACASSAMLLPGISGSFMLLVFGVYGTIMYAISEFVSLNFAALPILITVGCGVLFGFLCSSKLIQYLLSYYTYLTYALIIGFVIGSLYAVFPGLPSTIMIWIVSIVTLLLGFVISYRLGRLTAD | failed
MTHASILISVIIPAYNAAKFLPDAIASVEKQTFTDWELLIINDGSTDDTIEVVREHQKTSDCIYLINQTNQGVSAARNQGVAHSQGQIIAFLDADDQWLPDKLSQHWQHFQSNSRLGVSFAQVEILDQAGEPTGQVSTSRLNDLKPEYFLSENPTTTTSNWVIRKEVFTQVGGFCLDMSYSEDLEWLLRVSSTTDWQIQGINQVLTRYRTSSSGLSSNLYYMEAGWKQLVNRARIYAPQLVHNHFALAQAVHLRYLARRAFRLKLPARVGVDFITRALISDWRLLFHQPQRTFFTLLAVFGALVMERVFGLNTHRGSTAKAEPFRGSIP | failed
MFIHPHTSLTFEQCQKARVSRDSRFDGRFYVAVKTTGIFCRPICPANLPKEENVEYFTDKAQALKAGYRPCLRCRPDSAPGSWAWKGVETTFQRAISLIDRGELHHHSVSELAERVGISDRYLRMLFEQYLGMSPKQYAQYQQLMFAKQLLHSSSMSVTEVGFAAGFNSTRRFNDAFQKFLKLTPSQVRRREFDGVSTNRIALSYRGELNWQHMLDFYRLRAIEGVERVSGESYQRNVCLDNSKAWFKAIKGEGNLELEFEIEEVAKLQNLVSGIRRMFDLDTDICTVEQHLDYVAPGLVSNRGIRIPGVWNAWEAGVRAVLGQQVSVKAAIGQLNLLVKTLSGDADKRFFPTPDAIANADVSFLRMPQSRKETLVRFAQFMQSNAETDPQQWLALKGIGPWTVSYAQLRGQSQPDCFLDKDLVVKKAMQRYPSLNTHTAAPWGSYATFHLWNQS | failed
METLNDIKKILINVGLYQGFDLTDPKVSEEVNHETANMKWIKDYTSDGNWDNEFKEDLKNFLDYMEVCQLALNDKNFKIASNSLFMAMIYAGNLSLIFDSIKTDISTLLSAEYKKNSFSWPSLDE | not failed
MKPSFKKLLLLFSIITILSIACTPHAKASGRSWKSWFIEQYFWLKRDKSYYKVQDESSFQKYLNASREQSDKGYYLDPNSVNGGLVQERLFDMQVYSWNDNGKANQKTIFYLAGGSYLNNPTPYHISMLKTLSTSLDAKIILPIYPKTPRYTYDYAIPRLVNLYRHFHEKNANLTLMGDSAGGGLALGLAHALSHQSGQEAIPQPKNIILLSPWLDVTMKHPEIPKYEDTDPILSAWGLARVGEIWANGSNNTNHTYVSPKNAPATKLAPITLFTGTREIFFPDIRDYAAQLQAANHPVNYIAQEGMNHVYPIYPIEEAKTAQYQMIDIINKTP | failed
MGFNVKTPLLATDVIIRLWDGENFKGIVLIERKYPPVGLALPGGFVEVGERVEEAAAREMREETGLEVRLHKLMGVYSDPERDPRAHVVSVVWIGDAQGEPKAGSDAKKVKVYRLEEIPLDKLVFDHKKIILDFLKGNY | not failed
MTIKSDKWIRRMAQEHGMIEPFVERQVRGADDSRVISYGVSSYGYDVRCAAEFKVFTNIHSAVVDPKNFDEKSFVDINSDVCIIPPNSFALARTVEYFRIPRDVLTICLGKSTYARCGIIVNVTPLEPEWEGHVTLEFSNTTNLPAKIYANEGVAQMLFLQSDEACEVSYKDRGGKYQGQR | not failed
MTTRILTGITPTGTPHLGNYAGAIRPAILASRRSDVDSFYFLADYHALIKCDDPARIQRSRLEIAATWLAGGLDVERATFYRQSDIPEIPELTWLLTCVSAKGLLNRAHAYKAAVDRNVEAGEDPDAGVTMGLYSYPVLMAADILMFNAHKIPVGRDQVQHVEMARDIGQRFNHLFGNGREFFVLPEAVIEENVATLPGLDGRKMSKSYDNTIPLFSPSRQLKDAIARIVTDSRAPGEPKDPDSSHLFLLYSAFASAEQVAAFRQELLEGLAWGEAKQRLFQLLDNELGEARERYQALIAKPDDIEDILLAGAAKARRIATPFIAELREAVGLRSLREPLKSAESGKKKAAKAARLVSFRDDDGSFRFRLLDAAGEQLLLSRAFADGKAAGAVSKRLLAGETADLRAEGNAFGLWLDGEAVAQSPAFADAAARDAAIERTREALAPQ | failed
MTEPATAESAPAALREMRWWDIDPVLRMERELFPEDAWSRGMFWSELAHARGPGATRRYLVAEEDGHVVGYAGLVTSGEQADVQTIAVARDHWGTGLGARLLTELLRAATDFECTEVLLECRVDNTRAQRLYERFGFEPIGFRRGYYQPGNVDALVMRLTDPSTSVPGTERGTENHG | failed
MKSGIGVGLKKEHLKIQINNSGVLTITGGCPVDQTKTIRFMKETKVAKDCKRNEIRAKFSKGVLYVTMPKTIPIAAGLSVSLKGATPQHQTPKTDEGMRNVANCSSEFYSKFGSLKQRLWRKTVVEGVAAVVVVAAAVLGVVKAYQYFMASPV | failed
IARLDWSATPLGESGHWPQSLRTAVDIVIHSPMPMLLLWGAELTQIYNDGFALLAGNKHPSAFGHPAHLTWPELMDFTDPIYRAVLNGQVRTFSEQRFSLQRTNGSEYDLWLDLTYSPIRNERGDVAGILVTAIETNERRRIALELQQR | failed
MNTMEKKTNIHAEDGKQDLLISREFDLPVELLFKAYTEPEFVEQWMGTTVLKLENKKHGSYQFETTDPKGNKHGFNGTIHEFVPDKKITRTFEMDNTPFPIQLEFLVFEKTTETTSKLNMHVIYKSVTDRDNILKLPFAQGINMAHNRIQELPTKLK | failed
MGIPEEIPPVFKTAVDVLRGASFGVADASILGYPATSMTLNQQVDNFRSMKSNWIDDFIGRSLFMIYIGTEDKLNFTKNKPNAASICHFRY | failed
MLTNIERAKLQLIDETNDMVIITKAEPLDAPNGPEVVWVNKAFENISKYKANEIIGQTPRILQGKETNQNTLKMIKEALKAQTNINVDLLNYTKDGTPYWISFSIVYLRDGQGNLCYLGAIEKDITALKNLNFKLSEKAKTDPLTNVYNQENFFIAGNEAIKNFHQNQEAVGLLFFDVDDFKGINDTQGHIYGDMILKKVAQESLKLVRKTDNVFRYGGDEFAIIFSGIDVKILERKAQQLQKKLAKSHISVSIGGTISIQSDKSINTLLARADEALYYVKANKKGLFFIAE | failed
FAMESYFKGDSGEAELLAVAHKVQSDAWALQKAAGIAVIGLDGTLYDQVLDTITWLGAIPPRFKHLSGLQRYYAMARGGAALDMSKFFDTNYHYLVPELGPDVLGPATAAGAPLQPDFSGPLDKLARGQAVVGRERAVPILIGPVTFVSLSRGCELPLDQAVARLLPTYCALLQQLAAAGAPEVQLHEPVLATSEGAGMRAEFETAYAQMAQAAGSVPLHLVTYYDDLGAAYPWAVQLPVAAVTLDFLGPPGAAVPSQTLALLQQHGFPADKRLGAGVVDGRSVWKDDGTAVALLRALLDTGAVSSDRLVVTSSAPLQHLPYDLGLELEAPKTPEAEPHLPPALAARLGFAKQKVEEIVSVARLAASPAAAAAAAGHGAVVQLQRLQQGKGVEDHTAD | failed
MHAPDALPGCAPVSPAPGYHGAPAVAGHAPTLGVTASMSSITLFQAPPPEAIQSQIQQMVVDYITDVSAVAIAPSNPLYNLYQYGVGYEVHLYLQAMDGSRGIAVELVVATDPQAPDQVLGFTLYLPVKDDPQACAVAYMAVLQGHRRQGIARQMLQAMLARYPHAELACNVAKVGCFEALGFQLLGARGPQVLMNTRDHGSDGLLAVLDVVTIYQSVEVRQIHTYLLAQHGRKAMLEAEKKRDRQLDQMTRQAQALVRERLGEAALYRSRAPQLIN | failed
MGGKRHQNSGKGGKGRAKDAASAPQPNAGKVTLEGRSFLYVGGRDCQVAHLRQIASSYGAELIHHDGGLREAVSRIDRVLPSVDCVFCPIDCISHDACLRVKTGCKKWGKAFVPLRNGSKSSLEHHHHHH | not failed
MGRNDPLAAYNAKRDFARTAEPAGKRKSSATGNLFIVQKHDATRLHWDFRMEVDGVLKSWAVTRGPSPDPDDKRLAVQTEDHPLEYARFEGIIPEGEYGGGTVMLWDKGTWEPVEGKSAKDLEKGHLHFRLEGERMKGEWLLVRLKRRGNEKRDNWLLRKLDDAYAGQGDQLVERGLTSVLTGRTMAEIASDKAGSHSLKGKRGKAFASVMEEAGTHNRKVGKARGKAPSRARRNAPLPAFQPVQLATLVDTVPDGRQWLYEIKFDGYRALVAVRGTEVRVFTRSGLDWTEKFAPLARHLAGLKLPSCLIDGEIVAADADGNPDFSRLQAVLKRGHGEQGEGDALSFHAFDLLELEGEDLKPLPNVERKQKLAALLAGVSPPIHVADHIIGGGEKLLGALCGAGQEGIICKRADAAYAGKRTQNWLKVKCVARQEFIVVGFTRSSARRRPFASLLLAQREGKALVYKGKVGTGFDEDLLQDLATRFEALKVDEGPLDVPITEARGVTWLKPELVAEIAFAEFTAEGRVRHASFVGLREDKKAADVVPERPAPLVVQPEIVPISNRERVIFPESGQTKGDLADYYAAMAPAMLPFIANRPVSLVRCPQGRARHCFFQKHDSGSFGEHVHHVPIREKDGNEEEYLFVSDAAGILSCVQMGTIEFHGWCSLASDVEAPERMVIDLDPDEGLDFNDVKRAARDIRDRLSDLGLVSFAMLSGGKGVHVVVPLRPDHTWEAHASFAERFARALALAEPDRYVATMSKARRKGRIFIDWLRNRRGSTAVMPYSARARANAPVAVPIAWEELDDFANAHPFCIGDTAGLLKRSEGKSLRGWGMAQQSLPDV | failed
MSVVSPDPAPVPHDPQRRALLRWLVGGGALAGGLGVSAVAQGYRFGVTHEQWNLVGLTRPVRLALLTDLHYGLYIGAGSVRRWVDATLAECPDLILLGGDLVDSHFDAAARPQQTAALLAELGRLRAPLGVYAVWGNHDYGSFGRSISQSPEASRADWAARRDALRAGLAGQGVTVLLNEGRSLRDDLWLGGVDDLRMGEADSVAALRGSGTRATVLLAHNPDVLLRLRSAPGLVLSGHTHGGQVRLPLLGALKVPADPRFTMGWVRGPQGIPAYVSRGLGMSGLPVRNLCEPEITLLTLLPPGALEHHHHHH | failed
MIHVREFQASDSDVVLHLLDLKDIINSSSFSEKVFQLSESGDFLGLVAEANQSGKHQVVGCAFLRLLETISRGLHCQIEELAIDKAWLHQGVGKSLMETATSWAKERGVGDIYVDSPYASIAVKEGIDSVFVRDEVLEVAQQYEAEKEELQESLKKQYNTTISKLEKEYEAKKQQQDETIHNLQTQLEDATQYLEEQQAEENELLNIDPSSPRNHTGPYPRGRGFWGTLCFPIRKTCGPGSCLRLPSGPASVRGSTDRSN | not failed
MMYRNQCTAKEKLMNRINEVSFAVNDVLLYLDTHPCCEEAISFYQECEQERQKLLKEYAQCYGPLTVDAALESGGDTWKWVQQPFPWETEGGCRLEHHHHHH | not failed
NIESIENLQGIRALQQQAPQLLSSGLPNEQQFSLLKQAGVDVVINLMPDSSKDAHPDEGKLVTQAGMDYVYIPVDWQNPKVEDVEAFFAAMDQHKGKDVLVHCLANYRASAFAYLYQLKQGQNPNMAQTMTPWNDELAIYPKWQALLTEVSAKYGH | not failed
MARIDHVGLMVKDIDASIAFYQNVIGMTLKGRMTHTNGVMKLAFLGFENRDETELELIEGYNDNLPQEGKVHHFAVSTDDIEAEFDRVKGAGIKLMEDEITVLPNGFRYFFLFGPEGEMVEFFQRT | failed
